Paper PMC3723849 (PLoS ONE, 2013)
No end group written: not given here. *: point of attachment. Acm = CC(=O)NC*

B1: Peptide 564 (peptide)
peptide: LSFFSC(Acm)WLRRSFSLT
notes: 15-mer from phage clone G; Made on Rink amide resin, so a C-terminal amide is to be expected (surmised); source: synthetic peptide (HPLC purified)
B2: Peptide 565 (peptide)
peptide: ARMFLLFLMRC(Acm)IGC(Acm)Y
modifications: not fully specified
notes: 15-mer from phage clone C; Made on Rink amide resin, so a C-terminal amide is to be expected (surmised); source: synthetic peptide (HPLC purified)
B3: Phage clone 2 (round 2 of panning) (peptide)
chain: GTAVASRVYSLHSLM
notes: source: phage clone from the fUSE5 15-mer library, amplified in E. coli K91BluKan; not shown: bacteriophage coat protein (fd phage, fUSE5 library), C-terminal, kept

Experiments:
[1] = target: T1, His-tagged PSMA (PSMA-His6), soluble ectodomain of prostate-specific membrane antigen (human, UniProt Q04609 44-750); test: AlphaScreen or HTRF; competition: 563-biotin on streptavidin donor beads, PSMA-His6 on nickel chelate acceptor beads, unlabeled peptide at various concentrations; ambient temperature; 25 mM HEPES, 100 mM NaCl, pH 7.4; IC50 used to approximate KD; settings: both partners purified
T1 construct: prostate-specific membrane antigen (PSMA), human, soluble ectodomain; also called soluble PSMA; poly-histidine tagged PSMA; source: bought: R&D Systems

[2] = target: T1, His-tagged PSMA (PSMA-His6), soluble …; test: immunostaining of cells or tissue; competition: LNCaP cells pre-incubated with soluble PSMA-His6 (100 nM, 2 h, 37°C) before the phage clones were added; loss of phage staining read by confocal microscopy (rfu in ten cells); settings: both partners purified

T1 sequence (Q04609 44-750): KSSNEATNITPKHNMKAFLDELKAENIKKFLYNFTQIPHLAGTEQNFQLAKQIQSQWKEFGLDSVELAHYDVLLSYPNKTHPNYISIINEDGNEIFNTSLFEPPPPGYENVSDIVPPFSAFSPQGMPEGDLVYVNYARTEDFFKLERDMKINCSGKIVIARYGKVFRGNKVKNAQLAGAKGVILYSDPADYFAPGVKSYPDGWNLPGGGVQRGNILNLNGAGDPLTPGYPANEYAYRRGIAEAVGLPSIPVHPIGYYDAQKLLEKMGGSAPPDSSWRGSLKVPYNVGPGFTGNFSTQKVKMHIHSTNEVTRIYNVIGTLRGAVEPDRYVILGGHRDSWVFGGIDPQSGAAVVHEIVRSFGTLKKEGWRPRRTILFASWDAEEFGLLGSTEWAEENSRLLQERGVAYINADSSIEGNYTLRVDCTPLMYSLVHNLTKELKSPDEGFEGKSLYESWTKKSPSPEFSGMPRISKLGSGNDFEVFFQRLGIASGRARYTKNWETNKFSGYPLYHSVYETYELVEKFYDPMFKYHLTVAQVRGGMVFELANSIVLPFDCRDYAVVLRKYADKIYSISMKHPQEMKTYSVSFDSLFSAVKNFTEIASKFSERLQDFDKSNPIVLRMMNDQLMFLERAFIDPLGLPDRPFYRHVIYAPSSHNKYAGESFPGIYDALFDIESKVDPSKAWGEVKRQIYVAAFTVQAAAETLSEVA

| Binder | IC50 [1] [nM] | binding result [2] |
| --- | --- | --- |
| B1 | 1720 | – |
| B2 | > 4830 | – |
| B3 | – | binds |
